Here are results for one substance from US20180194859A1.

In the assay the target is Recombinant EGFR/His (UniProt P00533). The experiment in a line: SPR (Biacore T200), antibody captured on anti-human Fc, EGFR/His as analyte, 1:1 fit. A general note: In SPR one partner is held on a chip, and binding of the other changes the refractive index at the surface.

As a reminder, the Kd is the concentration at which binding is half-saturated. For “αHER2×αEGFR LDAb (trastuzumab IgG2 azide clicked to cetuximab IgG2 DBCO) (bispecific antibody)”, the Kd worked out at 2.8 nM.
